Results on 1 molecule are retold here after patent publication US20230265146A1 (AMUNIX PHARMACEUTICALS, published 2023).

The assay deals with T1, human IL-12 receptor on HEK-Blue IL-12 reporter cells (human, UniProt P42701 24-662; Q99665 24-862).
T1 construct: whole, on cells; also called 293 HEK-IL-12 reporter cells; HEK-Blue IL12 reporter cells (InvivoGen)
Briefly: Flow cytometry (MFI AF488) on HEK-Blue IL-12 reporter cells; bound protein detected with a fluorescent anti-His-tag antibody. Here is the method:
HEK-Blue IL-12 reporter cells (Invivogen, as described in Example 8) that express the human IL-12 receptor were used to assess binding of the IL12 constructs to the IL-12 receptor. Increasing concentrations of an exemplified “XTENylated IL12” construct (SEQ ID NO: 2) (1 μM) containing a recombinant single chain mouse IL12 with an N-terminal his-tag plus an XTEN sequence followed by a release segment sequence were incubated with 50,000 293HEK-IL-12 reporter cells that were subsequently washed and surface bound IL12 monitored by flow cytometry using a fluorescent-labelled anti-His-tag antibody for detection. Binding by the XTENylated IL12 was compared to binding of the reference IL-12 construct (SEQ ID NO:4) that contained a recombinant single chain mouse IL-12 and a C-terminal His-tag. Due to release of the His-tag from the XTENylated IL-12 following its activation with human matrix metallopeptidase 9 (MMP9), we were unable to assess IL-12 binding of its activated form in this assay. The XTEN fragment released by MMP9 cleavage retained the His-tag and was used as a specificity control for binding. As shown in FIGS. 9A-9B, the XTEN, when present in the fusion protein masked the cytokine binding to its corresponding IL12 receptor.

T1 sequence (Q99665 24-862, chain 2 of 2, other chains not shown): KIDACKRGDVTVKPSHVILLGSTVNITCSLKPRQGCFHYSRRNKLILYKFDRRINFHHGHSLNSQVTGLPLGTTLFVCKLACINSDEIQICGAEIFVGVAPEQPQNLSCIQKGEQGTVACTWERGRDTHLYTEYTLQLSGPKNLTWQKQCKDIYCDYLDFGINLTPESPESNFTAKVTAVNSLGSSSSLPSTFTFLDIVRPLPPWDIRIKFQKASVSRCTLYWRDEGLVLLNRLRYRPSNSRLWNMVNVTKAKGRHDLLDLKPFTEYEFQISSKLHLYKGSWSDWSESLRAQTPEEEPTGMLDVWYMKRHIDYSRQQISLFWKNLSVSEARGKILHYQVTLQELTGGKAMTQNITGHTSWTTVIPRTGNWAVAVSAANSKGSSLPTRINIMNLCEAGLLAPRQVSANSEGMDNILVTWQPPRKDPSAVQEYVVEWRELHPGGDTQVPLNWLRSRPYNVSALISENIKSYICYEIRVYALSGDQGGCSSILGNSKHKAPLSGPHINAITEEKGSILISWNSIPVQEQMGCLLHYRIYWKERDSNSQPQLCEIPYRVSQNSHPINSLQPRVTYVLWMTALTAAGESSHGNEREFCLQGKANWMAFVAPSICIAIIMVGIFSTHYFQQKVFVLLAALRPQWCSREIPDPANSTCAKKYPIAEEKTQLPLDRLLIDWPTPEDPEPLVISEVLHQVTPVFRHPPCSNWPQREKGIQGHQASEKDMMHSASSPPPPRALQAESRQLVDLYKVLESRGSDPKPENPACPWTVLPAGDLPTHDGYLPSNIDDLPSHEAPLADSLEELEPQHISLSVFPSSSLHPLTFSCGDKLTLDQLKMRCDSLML

B1: Reference IL12 construct (SEQ ID NO: 4) (ligand)
chain: MWELEKDVYVVEVDWTPDAPGETVNLTCDTPEEDDITWTSDQRHGVIGSGKTLTITVKEFLDAGQYTCHKGGETLSHSHLLLHKKENGIWSTEILKNFKNKTFLKCEAPNYSGRFTCSWLVQRNMDLKFNIKSSSSSPDSRAVTCGMASLSAEKVTLDQRDYEKYSVSCQEDVTCPTAEETLPIELALEARQQNKYENYSTSFFIRDIIKPDPPKNLQMKPLKNSQVEVSWEYPDSWSTPHSYFSLKFFVRIQRKKEKMKETEEGCNQKGAFLVEKTSTEVQCKGGNVCVQAQDRYYNSSCSKWACVPCRVRSGGGGSGGGGSGGGGSRVIPVSGPARCLSQSRNLLKTTDDMVKTAREKLKHYSCTAEDIDHEDITRDQTSTLKTCLPLELHKNESCLATRETSSTTRGSCLPPQKTSLMMTLCLGSIYEDLKMYQTEFQAINAALQNHNHQQIILDKGMLVAIDELMQSLNHNGETLRQKPPVGEADPYRVKMKLCILLHAFSTRVVTINRVMGYLSSAHHHHHHHH
For B1, a half-maximal effect (EC50) was put at 4.5 nM.
